Test results taken from paper PMC3564912, “Single Particle Electron Microscopy Analysis of the Bovine Anion Exchanger 1 Reveals a Flexible Linker Connecting the Cytoplasmic and Membrane Domains” (PLoS ONE, 2013).

Biological target: the molecule itself
Assay: SEC; Superose 6 10/300, 50 mM Tris-HCl pH 7.5, 0.03% DDM, 0.15 M NaCl; sample after ion exchange and the dimer fraction run again

B1: bovine anion exchanger 1 (AE1) (natural protein, UniProt Q9XSW5 1-930, looked up)
chain: MGDPEEYEDQLEETLEQKEYEDHDSVSIPMEEAEGDTIQEEEAEARVNQLTDTDYHTTSQHPETHKVCVQLRELVMDEKNQEIQWMETARWVGLEENLGKDGIWGRPHLPYLNFWSLLELQKAFAKGTVLLDLPGKSLAEVANQLLDRFTFEGQIQPDDQDNLLRVLLLKHSHASDMEALGGVKPVVVTHSGDPSEPLLPQHPSLETELFCEQGEGSTRGHAPEILGKSPQDWEATLVLVGCARFLKRPVLGFVRLKEPMEPEPKPEGSEEPAVPVRFLIVLLGPEGPNINYTQLGRAAATLMSERVFWNDAYLAQSKETLVQSLEGFLDCSLVLPPLDAPSEKALLSLVPVQKELLRRRYLPSPAKPDPSIFKDLDVKKGPGDTPEDPLQRTGKLFGGLVRDIRRRYPRYLSDITDALSPQVLSAIIFIYFAALTPAITFGGLLGDKTENMIGVSELLLSTALQGIIFSLLGAQPLLVLGFSGPLLVFEEAFYSFCQTNNLEYIVGRVWIGFWLILLVVLVVAFEGSFLVRFISRYTQEIFSFLISLIFIYETFYKLVTIFQDHPLQKNYDHDVLTTPKPQAALPNTALLSLVLMAGTFFLAMMLRKFKNSSYFPGKLRRIIGDFGVPISILIMVMVDALIQDTYTQKLSVPEGLSVSNPTERDWLIHPLGIRVEFPIWMMFASALPALLVFILIFLESQITTLIISKPERKMVKGSGFHLDLLLIIGMGGVGAIFGMPWLSATTVRTVTHANALTVMSKDSTPGAVSQIQGVKEQRISGLLVAVLVGVSILMGPVLRHIPLAVLFGIFLYMGVTSLSGIQLFDRVLLLLKPRKYYPEVPYARRVKTWRMHLFTITQIVCLVVLWVVRSIKQISLALPFILILTVPLRRFLLPFIFRDMELKLLDADDVKLNLDEQNGQDEYDEVAMPV
notes: anion exchanger 1 (AE1, band 3), bovine, native protein from erythrocyte membranes; monomer about 100 kDa; Solubilised in dodecyl maltoside (0.03% DDM in the final buffer); The dimer fraction from size exclusion was used; also called bovine AE1; full-length AE1 dimer; source: purified from bovine erythrocyte membranes (ghosts; DDM extraction, DE-52 ion exchange, Superose 6 size exclusion)
- stoichiometry N: 2
